The values below come from paper PMC3503143.

Assay [1] has as its target AbBphP1 holoprotein (bacteriophytochrome 1 of Azospirillum brasilense Sp7, biliverdin-bound) (Azospirillum brasilense Sp7). The assay can be described thus: cross-linking.
Assay [2] shares this target. The assay can be described thus: SEC.

“AbBphP1 holoprotein (bacteriophytochrome 1 of Azospirillum brasilense Sp7, biliverdin-bound) (natural protein)”: the stoichiometry N in assay [1] and in assay [2] was 2 throughout.
